From patent US20240158489A1 (published 2024) come the findings set out here.

Targets include Rabbit VEGF 165; Cyno ANG-2 (monkey); Rat VEGF164.
Holding throughout (assay): -; FIG. 2B
In another assay the target is T1, rabbit ANG2 (rabbit, UniProt G1T9B3 19-496).
T1 chain: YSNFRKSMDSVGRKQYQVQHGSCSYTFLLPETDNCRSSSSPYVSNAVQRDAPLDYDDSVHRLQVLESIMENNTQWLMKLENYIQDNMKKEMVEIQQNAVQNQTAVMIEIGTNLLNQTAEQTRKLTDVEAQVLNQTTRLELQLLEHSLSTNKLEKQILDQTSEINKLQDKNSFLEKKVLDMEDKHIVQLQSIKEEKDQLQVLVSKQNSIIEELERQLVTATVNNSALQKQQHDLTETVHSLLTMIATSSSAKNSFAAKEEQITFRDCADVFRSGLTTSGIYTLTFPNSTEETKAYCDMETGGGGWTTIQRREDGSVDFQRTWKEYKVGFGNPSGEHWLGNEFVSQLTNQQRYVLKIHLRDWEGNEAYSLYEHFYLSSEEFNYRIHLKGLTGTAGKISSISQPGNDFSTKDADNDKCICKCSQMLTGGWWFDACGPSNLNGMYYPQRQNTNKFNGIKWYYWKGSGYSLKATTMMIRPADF

In a further assay the target is T2, rat ANG2 (rat, UniProt O35462 19-496).
T2 chain: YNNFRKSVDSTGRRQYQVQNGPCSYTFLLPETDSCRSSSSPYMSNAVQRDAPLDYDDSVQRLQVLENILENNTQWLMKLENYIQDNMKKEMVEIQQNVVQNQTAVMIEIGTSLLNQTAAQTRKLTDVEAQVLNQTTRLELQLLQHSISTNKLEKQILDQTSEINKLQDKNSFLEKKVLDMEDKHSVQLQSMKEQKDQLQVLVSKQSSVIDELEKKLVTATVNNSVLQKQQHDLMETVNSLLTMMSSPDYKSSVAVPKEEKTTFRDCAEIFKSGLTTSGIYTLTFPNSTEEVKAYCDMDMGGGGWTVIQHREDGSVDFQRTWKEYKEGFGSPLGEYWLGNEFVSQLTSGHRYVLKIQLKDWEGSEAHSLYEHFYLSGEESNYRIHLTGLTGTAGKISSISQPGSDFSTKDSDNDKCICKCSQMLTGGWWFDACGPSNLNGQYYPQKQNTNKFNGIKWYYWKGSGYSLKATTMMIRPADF

B1: anti-ANG-2×VEGF bispecific antibody ABP201 (bispecific antibody)
heavy: EVQLLESGGGLVQPGGSLRLSCAASGFTFSWYEMYWVRQAPGKGLEWVSSISPSGGWTMYADSVKGRFTISRDNSKNTLYLQMNSLRAEDTAVYYCATPLYSSDYLSAGDIWGQGTMVTVSSASTKGPSVFPLAPSSKSTSGGTAALGCLVKDYFPEPVTVSWNSGALTSGVHTFPAVLQSSGLYSLSSVVTVPSSSLGTQTYICNVNHKPSNTKVDKRVEPKSCDKTHTCPPCPAPEAAGGPSVFLFPPKPKDTLMISRTPEVTCVVVDVSHEDPEVKFNWYVDGVEVHNAKTKPREEQYNSTYRVVSVLTVLHQDWLNGKEYKCKVSNKALPAPIEKTISKAKGQPREPQVYTLPPSREEMTKNQVSLTCLVKGFYPSDIAVEWESNGQPENNYKTTPPVLDSDGSFFLYSKLTVDKSRWQQGNVFSCSVMHEALHNAYTQKSLSLSPGKGGGGSGGGGSEIVLTQSPGTLSLSPGERATLSCRASQSITGSYLAWYQQKPGQAPRLLITGASSWATGIPDRFSGSGSGTDFTLTISRLEPEDFAVYYCQQYSSSPITFGCGTRLEIKGGGGSGGGGSGGGGSGGGGSQVQLVESGGGVVQPGRSLRLSCAASGFTFTNYGMHWVRQAPGKCLEWVAVISHEGNNKYYVDSVKGRFTISRDNSKNTLYLQMNSLRAEDTAVYYCAREGIDFWSGLNWFDPWGQGTLVTVS
light: EIVLTQSPATLSLSPGERATLSCRASQSVHSSYLAWYQQKPGQAPRLLIYGASSRATGIPDRFSGSGSGTDFTLTISRLEPEDFAVYYCQQSYRTPSFGQGTRLEIKRTVAAPSVFIFPPSDEQLKSGTASVVCLLNNFYPREAKVQWKVDNALQSGNSQESVTEQDSKDSTYSLSSTLTLSKADYEKHKVYACEVTHQGLSSPVTKSFNRGEC
As for B1, the Kd in the assay with rabbit ANG2 was determined as 30.4 nM; with rat ANG2 it was 40.5 nM.

B2: ABP 201 (bispecific antibody)
heavy: B1 heavy
light: B1 light
On to B2, for which the Kd with Rabbit VEGF 165 was found to be 2.06 nM; with Cyno ANG-2, 29.8 nM; with Rat VEGF164, 0.62 nM.
